Experimental data: patent US20250361295A1 (ANTENGENE BIOLOGICS, published 2025)

Experiments:
[1] = biological target: T1, human LILRB4 (human, UniProt Q8NHJ6 22-448); assay: FACS, 293F-hLILRB4 cells
T1 construct: whole, on cells; also called hLILRB4
Experimental: (§1) The protocol for FACS analysis is described as follows: [0438] (a) Cells were harvested by centrifugation at 300 g for 3 mins. […] (b) The cells were washed for 2 times with FACS buffer by centrifuging at 300 g for 3 mins and the supernatant was discarded. [0440] (c) Cell were resuspended and seeded into assay plate (2×10⁵ cells/well) in 50 μl FACS buffer. […] Cells were incubated with antibodies at 4° C. for 1 hour. […] (d) Step (b) was repeated and the cells were resuspended with 100 μl diluted 2nd antibody, incubated at 4° C. for 1 hour in the dark. [0442] (e) Step (b) was repeated and the cells were resuspended with 100 μl FACS buffer. The cells were kept in dark for FACS analysis.

[2] = biological target: T1, human LILRB4; assay: cell-based or functional assay
[3] = biological target: T1, human LILRB4; assay: cell-based or functional assay; remark: listed apart in the source
[4] = biological target: T2, human LILRB3 (human, UniProt O75022 24-631); assay: FACS, 293F-hLILRB3 cells
T2 construct: whole, on cells; also called hLILRB3
Experimental: as §1

[5] = biological target: T3, human LILRA6 protein (human, UniProt Q6PI73 24-447, limits assumed); assay: ELISA, LILRA6 protein
T3 construct: protein for ELISA; construct not described; also called hLILRA6 protein

[6] = biological target: T1, human LILRB4; assay: cell-based or functional assay; remark: listed apart in the source

T3 sequence (Q6PI73 24-447 limits assumed): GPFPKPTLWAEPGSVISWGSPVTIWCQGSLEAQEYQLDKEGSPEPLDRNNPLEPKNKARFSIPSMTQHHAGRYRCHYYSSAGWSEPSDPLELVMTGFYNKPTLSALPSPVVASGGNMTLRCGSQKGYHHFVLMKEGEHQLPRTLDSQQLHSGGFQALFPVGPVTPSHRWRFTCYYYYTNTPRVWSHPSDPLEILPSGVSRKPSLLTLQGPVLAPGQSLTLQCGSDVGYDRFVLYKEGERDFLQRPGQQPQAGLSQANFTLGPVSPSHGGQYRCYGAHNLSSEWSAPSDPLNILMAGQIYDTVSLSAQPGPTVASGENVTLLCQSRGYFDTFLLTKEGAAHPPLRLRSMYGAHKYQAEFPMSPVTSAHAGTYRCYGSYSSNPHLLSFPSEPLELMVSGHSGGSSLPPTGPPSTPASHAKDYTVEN
T2 sequence (O75022 24-631): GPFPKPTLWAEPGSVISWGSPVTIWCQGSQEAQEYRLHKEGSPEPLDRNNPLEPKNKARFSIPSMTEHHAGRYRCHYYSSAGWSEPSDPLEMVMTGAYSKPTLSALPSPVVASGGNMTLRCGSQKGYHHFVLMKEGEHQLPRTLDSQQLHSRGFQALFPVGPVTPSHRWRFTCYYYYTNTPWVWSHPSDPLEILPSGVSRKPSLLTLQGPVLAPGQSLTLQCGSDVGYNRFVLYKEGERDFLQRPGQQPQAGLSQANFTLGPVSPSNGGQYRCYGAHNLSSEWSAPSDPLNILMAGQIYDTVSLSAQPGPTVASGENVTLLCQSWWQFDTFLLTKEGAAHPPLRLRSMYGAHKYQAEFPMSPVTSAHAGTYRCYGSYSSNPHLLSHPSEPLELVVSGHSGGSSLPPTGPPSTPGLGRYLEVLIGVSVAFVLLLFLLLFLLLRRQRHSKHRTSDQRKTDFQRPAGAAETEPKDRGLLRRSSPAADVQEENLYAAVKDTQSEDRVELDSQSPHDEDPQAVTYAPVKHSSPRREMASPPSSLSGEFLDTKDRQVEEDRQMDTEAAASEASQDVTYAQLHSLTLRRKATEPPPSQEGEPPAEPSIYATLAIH

B1: ch42-C8-A12-F3-D11 (antibody, V domains shown)
VH: EVHLVESGGDLVKPGGSLKLSCAASGFTFSSHGMSWVRQTPDKRLEWVATISSGGIYTYHPDSVKGRFSISRDNAKKTLYLQMSSLKSEDTGIYYCTRGQVGNWYFDVWGAGTTVTVSS
VL: DIVITQSPAIMSASPGEKVTINCSASSSVSYMHWFQQTPGTSPKLWIYSTSNLASGVPARFSGSGSGTFYSLTISRMEAEDAATYYCQQRSSYPLTFGAGTKLELK
EC50 [1]: 1.36 nM
Max MFI [1]: 48400 MFI
ADCP (%) at 133.3 nM, macrophages and MV-4-11 cells [2]: 20.4%
Max cell cytotoxicity (%), ADCC on THP-1 cells [3]: 14.5%
EC50 [4]: 12.8 nM
ELISA(OD450) [5]: 0.32 OD450
FcγR stimulation (TNF-α, pg/mL) [6]: 308 pg/mL
Fold change (Compared to isotype) [6]: 9.73 fold

B2: ch25-G9-G4-C12 (antibody, V domains shown)
VH: EVQLVESGGDLVKPGGSLKLSCAASGFTFSSHGMSWVRQTPDKRLEWVATINSGGYYTYYPDSVKGRFTISRDNAKNTLYLQMSSLKSEDTAMYYCARGQLGNWYFDVWGAGTTVTVSS
VL: DIVMTQSPAIMSASPGEKVTITCSASSSVSYMHWFQQKPGTSPKLWIYSTSNLASGVPARFSGSGSGTSYSLTISRMEAEDAATYYCQQRSSYPLTFGAGTKLELK
EC50 [1]: 1.55 nM
Max MFI [1]: 43300 MFI
ADCP (%) at 133.3 nM, macrophages and MV-4-11 cells [2]: 24.2%
Max cell cytotoxicity (%), ADCC on THP-1 cells [3]: 11%
binding result [4]: no binding (tested: up to 66.67 nM)
ELISA(OD450) [5]: 0.687 OD450
FcγR stimulation (TNF-α, pg/mL) [6]: 356 pg/mL
Fold change (Compared to isotype) [6]: 11.3 fold

B3: ch36-F4-H1-D9 (antibody, V domains shown)
VH: EVKLLESGGGLVQPGGSLKLSCAASGFDFSRYWMIWVRQAPEKGLEWIGEINPDSSTINYTPSLKDKFIISRDNAKNTLYLQMSKVRSEDTALYYCARPYYRYDVGYFDVWGAGTTVTVSS
VL: DIVMTQAPKVLLVSAGDRVTISCKASQSVSNAVVWYQQKPGQSPKLLIFYASNRYTGVPDRFTGSGYGTDFTFSISTVQAEDLAVYFCQQDYSSPWTFGGGTKLEIK
EC50 [1]: 1.99 nM
Max MFI [1]: 48200 MFI
ADCP (%) at 133.3 nM, macrophages and MV-4-11 cells [2]: 14.8%
Max cell cytotoxicity (%), ADCC on THP-1 cells [3]: 17.9%
binding result [4]: no binding (tested: up to 66.67 nM)
binding result [5]: no binding
FcγR stimulation (TNF-α, pg/mL) [6]: 543 pg/mL
Fold change (Compared to isotype) [6]: 17.2 fold

B4: ch7-B4-C1-C9 (antibody, V domains shown)
VH: EVQLQQSGTELVKPGASVKLSCKASGYTFTNYWMHWVKQRPGQGLEWIGEINPSNGRTNYNEKFKTKATLTVDKSSSTAYMQLSSLTSEDSAVYYCARSTYYGYDWYFDVWGAGTTVTVSS
VL: DIVLTQSPSSMYASLGERVTITCKASQDINSYLSWFQQKPGKSPKTLIYRANRLLDGVPSRFSGGGSGQDYSLTISSLEHEDMGIYYCLQCDEFPHTFGGGTKLEIK
EC50 [1]: 0.54 nM
Max MFI [1]: 47300 MFI
ADCP (%) at 133.3 nM, macrophages and MV-4-11 cells [2]: 11.8%
Max cell cytotoxicity (%), ADCC on THP-1 cells [3]: 13.9%
binding result [4]: no binding (tested: up to 66.67 nM)
binding result [5]: no binding
FcγR stimulation (TNF-α, pg/mL) [6]: 415 pg/mL
Fold change (Compared to isotype) [6]: 13.1 fold

B5: ch26-H9-B9-B7 (antibody, V domains shown)
VH: EVQRVESGGGLVQPGGSRKLSCAASGFTFSSFGMHWVRQAPEKGLEWVAYISSGSSTIYYADTVKGRFTISRDNPKNTLFLQMTSLRSEDTAMYYCARSDGKGAMDYWGQGTSVTVSS
VL: DIVMTQSTSSLSASLGDRVTISCRASQDISNYLNWYQQKPDGTVKLLIYYTSRLHSGVPSRFSGSGSGTDYSLTISNLEQEDIATYFCQQGNTLPWTFGGGTKLEIK
EC50 [1]: 1.66 nM
Max MFI [1]: 46000 MFI
ADCP (%) at 133.3 nM, macrophages and MV-4-11 cells [2]: 16.1%
Max cell cytotoxicity (%), ADCC on THP-1 cells [3]: 15.2%
binding result [4]: no binding (tested: up to 66.67 nM)
binding result [5]: no binding
FcγR stimulation (TNF-α, pg/mL) [6]: 547 pg/mL
Fold change (Compared to isotype) [6]: 17.3 fold

B6: ch25-E7-A10-H6 (antibody, V domains shown)
VH: EVQLVESGGGLVQPGGSRKLSCAASGFTFSTFGMHWVRQAPEKGLEWVAYISSGSSTIYYADTVKGRFTISRDNPKNTLFLQMTSLRSEDTAMYYCARSTGTGAMDYWGQGTSVTVSS
VL: DIQMTQTTSSLSASLGDRVTISCRASQDISKYLNWYQQKPDGTVKLLIYYTSRLHSGVPSRFSGSGSGTDYSLTISNLEQEDIATYFCQQGNTLPWTFGGGTKLEIK
EC50 [1]: 1.4 nM
Max MFI [1]: 45000 MFI
ADCP (%) at 133.3 nM, macrophages and MV-4-11 cells [2]: 11%
Max cell cytotoxicity (%), ADCC on THP-1 cells [3]: 11.7%
binding result [4]: no binding (tested: up to 66.67 nM)
binding result [5]: no binding
FcγR stimulation (TNF-α, pg/mL) [6]: 390 pg/mL
Fold change (Compared to isotype) [6]: 12.3 fold

B7: ch27-F11-E10-G10 (antibody, V domains shown)
VH: EVQLVESGGGLVQPGGSRKLSCAASGFTFSSFGMHWVRQAPEKGLEWVAYISSGSSTIYYADTVKGRFSISRDNPKNTLFLQMTSLRSEDTAMFYCARSTGTGAMDYWGQGTSVTVSS
VL: DIQMTQTTSSLSASLGDRVTISCRASQDISNYLNWYQQKPDGTVKLLIYYTSRLHSGVPSRFSGSGSGTDYSLTISNLEQEDIATYFCQQGNTLPWTFGGGTKLELK
EC50 [1]: 1.52 nM
Max MFI [1]: 46200 MFI
ADCP (%) at 133.3 nM, macrophages and MV-4-11 cells [2]: 16.3%
Max cell cytotoxicity (%), ADCC on THP-1 cells [3]: 18.7%
binding result [4]: no binding (tested: up to 66.67 nM)
binding result [5]: no binding
FcγR stimulation (TNF-α, pg/mL) [6]: 393 pg/mL
Fold change (Compared to isotype) [6]: 12.4 fold

B8: ch27-G5-E9-B8 (antibody, V domains shown)
VH: EVQLVESGGGLVQPGGSRKLSCAASGFTFSSFGMHWVRQAPEKGLEWVAYISSGSSTIYYADTVKGRFTISRDNPKNTLFLQMTSLRSEDTAMYYCARSTGTGAMDYWGQGTSVTVSS
VL: DIQMTQTTSSLSASLGDSVTFSCRASQDISNYLNWYQQKPDGTVKLLISYTSRLHSGVPSRFSGSGSGTDYSLTISNLEQEDIATYFCQQGNALPWTFGGGTKLEIK
EC50 [1]: 1.75 nM
Max MFI [1]: 44300 MFI
ADCP (%) at 133.3 nM, macrophages and MV-4-11 cells [2]: 14.8%
Max cell cytotoxicity (%), ADCC on THP-1 cells [3]: 16.4%
binding result [4]: no binding (tested: up to 66.67 nM)
binding result [5]: no binding
FcγR stimulation (TNF-α, pg/mL) [6]: 394 pg/mL
Fold change (Compared to isotype) [6]: 12.5 fold

B9: ch27-D11-C2-A10 (antibody, V domains shown)
VH: EVQLVESGGGLVQPGGSRKLSCAASGFTFSVFGVHWVRQAPEKGLEWVAYISSGSNTIHYADTVKGRFTISRDIPKNTLFLQMTSLRSEDTAMYYCARSSGTGAMDYWGQGTSVTVSS
VL: DIQMTQSTSSLSASLGDRVSISCRASQDISNYLNWYQQKPDGAVKLLIYYTSRLHSGVPSRFSGSGSGTDYSLTISNLDQEDIATYFCQQGNTLPWTFGGGTKLELK
EC50 [1]: 1.43 nM
Max MFI [1]: 46800 MFI
ADCP (%) at 133.3 nM, macrophages and MV-4-11 cells [2]: 12.1%
Max cell cytotoxicity (%), ADCC on THP-1 cells [3]: 20.2%
binding result [4]: no binding (tested: up to 66.67 nM)
binding result [5]: no binding
FcγR stimulation (TNF-α, pg/mL) [6]: 666 pg/mL
Fold change (Compared to isotype) [6]: 21.1 fold

B10: IO-202 (antibody, V domains shown)
VH: EVQLLESGGGLVQPGGSLRLSCAASGIDFSNHYYMYWVRQAPGKGLEWIGSIFSGDSASTYYADSAKGRFTISRDNSKNTLYLQMNSLRAEDTAVYYCARGMSTNDWASDLWGQGTLVTVSS
VL: DIQMTQSPSSLSASVGDRVTITCQASESINSIYLAWYQQKPGKAPKLLIYRASTLASGVPSRFSGSGSGTDFTLTISSLQPEDFATYYCQQSYDWGDVENTFGGGTKVEIK
EC50 [1]: 0.016 nM
Max MFI [1]: 39700 MFI
ADCP (%) at 133.3 nM, macrophages and MV-4-11 cells [2]: 21.8%
EC50 (nM), ADCC on THP-1 cells [3]: 248 nM
Max cell cytotoxicity (%), ADCC on THP-1 cells [3]: 13.9%
binding result [4]: no binding (tested: up to 66.67 nM)
ELISA(OD450) [5]: 0.157 OD450
FcγR stimulation (TNF-α, pg/mL) [6]: 238 pg/mL
Fold change (Compared to isotype) [6]: 7.52 fold

B11: ch4-E6-E4-B12 (antibody, V domains shown)
VH: EVQLKESGAELVKPGASVKLSCKASGYTFTSHWMHWVKQRPGQGLEWIGEINPSNGRTNYNEKFTSKATLTVDQSSSTAYMQLSSLTSEDSAVYYCARGNLTTVVPFDYWGQGTALTVSS
VL: DIVMTQSPSSLSASLGGKVTITCKASQDINKFIAWYQHKPGKGPRLLIHFTSTLQPGIPSRFSGSGSGRDYSFSISNLEPEDIATYFCLQYDLLLTFGGGTKLEIK
EC50 [1]: 1.09 nM
Max MFI [1]: 54500 MFI
ADCP (%) at 133.3 nM, macrophages and MV-4-11 cells [2]: 14.1%
Max cell cytotoxicity (%), ADCC on THP-1 cells [3]: 14.6%
binding result [4]: no binding (tested: up to 66.67 nM)
ELISA(OD450) [5]: 0.353 OD450
FcγR stimulation (TNF-α, pg/mL) [6]: 266 pg/mL
Fold change (Compared to isotype) [6]: 8.43 fold

B12: ch2-H8-C9-F7-E2 (antibody, V domains shown)
VH: EVQLQQSGAELVKPGASVKLSCKASGYTFTNYWMHWVKQRPGQGLEWIGEINPSNGRTNYNEKFKSKATLTVDKSSSTAYMQLSSLTSEDSAVYYCARGSLTTVVPFDYWGQGTTLTVSS
VL: DIQMTQTPSSLSASLGGKVTITCKASQDINNYIAWYQHKPGKGPRLLIHYTSTLQPGIPSRFSGSGSGRDYSFSISNLEPEDIATYFCLQYDILLTFGGGTKLEK
EC50 [1]: 1.23 nM
Max MFI [1]: 41000 MFI
ADCP (%) at 133.3 nM, macrophages and MV-4-11 cells [2]: 9.35%
EC50 (nM), ADCC on THP-1 cells [3]: 1.38 nM
Max cell cytotoxicity (%), ADCC on THP-1 cells [3]: 31.1%
binding result [4]: no binding (tested: up to 66.67 nM)
ELISA(OD450) [5]: 0.576 OD450
FcγR stimulation (TNF-α, pg/mL) [6]: 310 pg/mL
Fold change (Compared to isotype) [6]: 9.82 fold
